Legend:
[1] = target: C5b6 complex generated on convertase-labelled E. coli from C5 and C6 (human) (UniProt P01031)
[2] = target: C5b6 complex generated on convertase-labelled E. coli from C5 and C6 (human) (UniProt P01031); remark: listed apart in the source
[3] = target: C5b6 complex generated on convertase-labelled E. coli from C5 and C6 (human) (UniProt P01031); remark: listed apart in the source

Sequence of UniProt P01031 (P01031 19-673, chain 1 of 3): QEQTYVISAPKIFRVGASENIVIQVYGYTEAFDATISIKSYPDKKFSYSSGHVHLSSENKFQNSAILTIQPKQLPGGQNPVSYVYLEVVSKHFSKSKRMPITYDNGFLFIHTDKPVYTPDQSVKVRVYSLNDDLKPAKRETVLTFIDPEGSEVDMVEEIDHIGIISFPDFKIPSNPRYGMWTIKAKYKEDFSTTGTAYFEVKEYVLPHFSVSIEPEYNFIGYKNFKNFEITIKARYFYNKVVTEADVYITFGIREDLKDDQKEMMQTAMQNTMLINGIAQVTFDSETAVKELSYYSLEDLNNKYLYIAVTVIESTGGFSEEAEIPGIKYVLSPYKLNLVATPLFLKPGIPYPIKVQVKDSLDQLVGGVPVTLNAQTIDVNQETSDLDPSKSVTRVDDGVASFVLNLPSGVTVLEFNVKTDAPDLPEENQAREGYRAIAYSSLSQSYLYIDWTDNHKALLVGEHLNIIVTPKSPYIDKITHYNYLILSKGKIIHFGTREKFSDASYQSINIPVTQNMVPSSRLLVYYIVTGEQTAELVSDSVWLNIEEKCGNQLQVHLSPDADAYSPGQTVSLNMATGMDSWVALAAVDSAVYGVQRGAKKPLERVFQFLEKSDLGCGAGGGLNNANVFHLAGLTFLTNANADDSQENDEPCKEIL
Sequence of UniProt P01031 (P01031 752-1676, chain 2 of 3): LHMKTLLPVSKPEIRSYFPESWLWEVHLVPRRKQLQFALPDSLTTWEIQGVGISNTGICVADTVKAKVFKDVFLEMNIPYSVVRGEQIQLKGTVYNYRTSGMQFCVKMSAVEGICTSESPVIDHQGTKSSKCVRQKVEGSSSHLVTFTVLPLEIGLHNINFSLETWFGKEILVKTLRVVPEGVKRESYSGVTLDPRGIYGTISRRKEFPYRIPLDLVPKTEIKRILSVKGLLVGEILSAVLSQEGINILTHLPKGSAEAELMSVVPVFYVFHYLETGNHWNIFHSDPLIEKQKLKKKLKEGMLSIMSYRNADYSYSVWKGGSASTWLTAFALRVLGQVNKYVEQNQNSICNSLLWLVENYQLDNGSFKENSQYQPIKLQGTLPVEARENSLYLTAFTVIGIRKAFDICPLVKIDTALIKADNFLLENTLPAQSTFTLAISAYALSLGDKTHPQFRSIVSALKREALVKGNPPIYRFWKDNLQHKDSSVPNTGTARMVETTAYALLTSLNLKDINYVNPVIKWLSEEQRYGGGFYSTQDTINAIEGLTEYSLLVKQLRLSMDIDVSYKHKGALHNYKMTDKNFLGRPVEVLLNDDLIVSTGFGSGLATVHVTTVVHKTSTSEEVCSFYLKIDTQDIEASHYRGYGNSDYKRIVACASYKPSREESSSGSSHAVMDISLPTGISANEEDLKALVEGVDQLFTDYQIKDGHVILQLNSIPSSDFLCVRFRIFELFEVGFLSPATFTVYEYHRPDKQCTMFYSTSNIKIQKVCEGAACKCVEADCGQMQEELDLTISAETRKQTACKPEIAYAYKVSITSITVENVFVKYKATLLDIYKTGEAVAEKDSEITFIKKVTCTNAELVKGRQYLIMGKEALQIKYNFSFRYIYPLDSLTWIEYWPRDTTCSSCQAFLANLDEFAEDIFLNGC
Sequence of UniProt P01031 (P13671 22-934, chain 3 of 3, further chain): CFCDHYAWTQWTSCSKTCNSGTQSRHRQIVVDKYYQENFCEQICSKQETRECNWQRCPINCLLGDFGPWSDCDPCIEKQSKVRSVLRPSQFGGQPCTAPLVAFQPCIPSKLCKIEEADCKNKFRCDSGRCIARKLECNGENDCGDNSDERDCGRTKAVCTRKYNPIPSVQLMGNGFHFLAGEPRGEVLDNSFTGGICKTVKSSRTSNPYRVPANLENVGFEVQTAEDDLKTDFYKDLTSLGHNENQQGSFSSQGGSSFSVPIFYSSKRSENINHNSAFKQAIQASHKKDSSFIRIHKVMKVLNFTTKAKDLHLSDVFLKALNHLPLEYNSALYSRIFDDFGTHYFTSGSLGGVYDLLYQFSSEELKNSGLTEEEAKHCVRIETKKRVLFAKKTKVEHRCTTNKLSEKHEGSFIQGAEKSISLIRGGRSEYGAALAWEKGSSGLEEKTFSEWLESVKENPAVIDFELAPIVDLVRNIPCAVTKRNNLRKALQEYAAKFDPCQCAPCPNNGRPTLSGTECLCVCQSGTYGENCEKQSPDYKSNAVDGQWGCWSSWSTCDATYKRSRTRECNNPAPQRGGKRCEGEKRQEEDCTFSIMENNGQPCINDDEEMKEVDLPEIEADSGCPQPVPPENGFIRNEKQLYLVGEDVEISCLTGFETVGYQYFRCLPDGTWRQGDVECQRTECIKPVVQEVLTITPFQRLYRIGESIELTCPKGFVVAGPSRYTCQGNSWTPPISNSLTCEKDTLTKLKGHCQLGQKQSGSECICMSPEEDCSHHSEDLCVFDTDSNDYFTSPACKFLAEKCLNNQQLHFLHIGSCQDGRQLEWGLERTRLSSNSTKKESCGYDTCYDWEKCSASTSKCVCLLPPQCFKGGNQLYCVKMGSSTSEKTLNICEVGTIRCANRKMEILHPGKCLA

“His-tagged complement component C7 (from UniProt P10643 23-843) (natural protein)” was tested, and the deposition of C9-Cy5 (geoMFI) on E. coli MG1655, C5b6 generated in the absence of C7 against in the presence of C7 [1] was 50 fold, the fluorescence ratio C9:C6 on E. coli MG1655, C5b6 generated in the presence of C7 against in the absence of C7 [1] was 10 fold and the deposition of C6-Cy5 (geoMFI) on convertase-labelled E. coli MG1655 after 60 minutes, C5b6 generated in the presence of C7 against in its absence [2] was 10 fold. For the same substance, the percentage of Sytox positive (inner membrane damaged) E. coli MG1655 after addition of C8 and C9; C7 present from t = 0 (~100%) or added 60 minutes after C5b6 generation was initiated (~6%) [3] was 100%.

From PMC7351214
